In PMC9812585:

How the values were obtained:
[1] = target: human GC-A (membrane guanylate cyclase A, natriuretic peptide receptor) (human) (UniProt P16066)
[2] = target: human GC-B (membrane guanylate cyclase B, natriuretic peptide receptor) (human) (UniProt P20594)
[3] = target: human GC-B (membrane guanylate cyclase B, natriuretic peptide receptor) (human) (UniProt P20594); remark: listed apart in the source
[4] = target: human GC-A (membrane guanylate cyclase A, natriuretic peptide receptor) (human) (UniProt P16066); remark: listed apart in the source

Chain of UniProt P16066 (P16066 33-1061): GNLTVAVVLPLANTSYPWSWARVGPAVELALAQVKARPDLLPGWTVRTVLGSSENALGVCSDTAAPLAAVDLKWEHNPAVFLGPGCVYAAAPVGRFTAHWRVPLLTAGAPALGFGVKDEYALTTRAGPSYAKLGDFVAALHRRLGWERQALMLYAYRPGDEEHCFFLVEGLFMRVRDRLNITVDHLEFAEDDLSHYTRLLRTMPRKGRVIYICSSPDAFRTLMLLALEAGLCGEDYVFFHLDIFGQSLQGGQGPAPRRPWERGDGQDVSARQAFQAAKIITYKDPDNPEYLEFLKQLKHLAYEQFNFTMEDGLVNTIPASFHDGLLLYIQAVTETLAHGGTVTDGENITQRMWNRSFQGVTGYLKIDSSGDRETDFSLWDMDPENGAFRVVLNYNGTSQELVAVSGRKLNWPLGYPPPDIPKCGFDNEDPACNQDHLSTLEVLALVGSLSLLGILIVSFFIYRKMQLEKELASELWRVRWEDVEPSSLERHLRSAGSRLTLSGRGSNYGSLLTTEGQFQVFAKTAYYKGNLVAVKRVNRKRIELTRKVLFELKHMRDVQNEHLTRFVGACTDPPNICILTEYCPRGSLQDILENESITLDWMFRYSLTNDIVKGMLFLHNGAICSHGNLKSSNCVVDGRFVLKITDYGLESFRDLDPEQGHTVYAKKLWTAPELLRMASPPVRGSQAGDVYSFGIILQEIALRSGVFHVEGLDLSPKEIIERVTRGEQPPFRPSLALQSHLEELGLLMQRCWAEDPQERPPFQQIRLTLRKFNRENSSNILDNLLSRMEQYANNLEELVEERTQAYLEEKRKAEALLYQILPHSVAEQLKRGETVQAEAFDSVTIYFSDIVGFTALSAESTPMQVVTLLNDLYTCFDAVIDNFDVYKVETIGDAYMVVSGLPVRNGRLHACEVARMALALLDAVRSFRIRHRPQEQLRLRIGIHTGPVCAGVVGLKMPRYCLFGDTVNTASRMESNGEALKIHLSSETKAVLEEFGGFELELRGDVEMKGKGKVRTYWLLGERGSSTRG
Chain of UniProt P20594 (P20594 23-1047): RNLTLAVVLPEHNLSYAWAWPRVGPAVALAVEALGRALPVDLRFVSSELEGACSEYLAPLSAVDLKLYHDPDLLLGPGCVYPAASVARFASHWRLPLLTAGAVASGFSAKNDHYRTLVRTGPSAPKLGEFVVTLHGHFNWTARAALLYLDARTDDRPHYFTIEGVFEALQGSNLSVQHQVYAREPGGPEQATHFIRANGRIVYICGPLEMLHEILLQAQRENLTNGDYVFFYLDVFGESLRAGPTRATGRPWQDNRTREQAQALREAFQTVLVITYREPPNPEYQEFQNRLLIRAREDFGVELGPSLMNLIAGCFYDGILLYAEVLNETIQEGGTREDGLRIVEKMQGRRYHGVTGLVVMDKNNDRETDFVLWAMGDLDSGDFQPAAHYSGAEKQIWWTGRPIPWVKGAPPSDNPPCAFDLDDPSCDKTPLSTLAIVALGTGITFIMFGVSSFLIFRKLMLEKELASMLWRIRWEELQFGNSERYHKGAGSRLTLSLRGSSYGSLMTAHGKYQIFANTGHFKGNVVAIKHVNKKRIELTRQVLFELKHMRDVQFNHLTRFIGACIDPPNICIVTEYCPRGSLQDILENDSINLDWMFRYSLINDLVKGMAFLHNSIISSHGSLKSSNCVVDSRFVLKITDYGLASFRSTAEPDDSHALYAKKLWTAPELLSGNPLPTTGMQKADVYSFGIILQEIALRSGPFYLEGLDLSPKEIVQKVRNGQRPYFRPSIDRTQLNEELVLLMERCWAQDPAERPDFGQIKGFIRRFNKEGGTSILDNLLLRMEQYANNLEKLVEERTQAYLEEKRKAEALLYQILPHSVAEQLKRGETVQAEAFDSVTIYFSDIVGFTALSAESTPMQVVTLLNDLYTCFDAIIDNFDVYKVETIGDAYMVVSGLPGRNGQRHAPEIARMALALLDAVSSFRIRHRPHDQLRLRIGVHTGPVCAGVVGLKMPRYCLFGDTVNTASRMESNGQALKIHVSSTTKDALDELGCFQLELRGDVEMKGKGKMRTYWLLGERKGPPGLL

human atrial natriuretic factor (1-28) (peptide)
stimulation of cGMP production in HEK293T cell membranes with increasing ANP, saturation above 4 μM [1]: 10 fold

human c-type natriuretic peptide (1-53)
stimulation of cGMP production in HEK293T cell membranes with increasing CNP, saturation above 4 μM [2]: 10 fold

retinal degeneration protein 3 (RD3) (from UniProt Q7Z3Z2 1-195) (natural protein)
IC50 of inhibition of guanylate cyclase activity (cGMP synthesis) of GC-B in HEK293T cell membranes activated by 2 μM CNP, increasing RD3; inhibition not complete at 0.5-1 μM RD3 [3]: 29 nM | IC50 of inhibition of guanylate cyclase activity (cGMP synthesis) of GC-A in HEK293T cell membranes activated by 2 μM ANP, increasing RD3; inhibition not complete at 0.5-1 μM RD3 [4]: 24 nM
